Values belong to the substance of their own block, whether it stands above or below them.
What was measured:
[1] = target: … (SEQ ID NO: 25) on HLA-A2 of pulsed T2 cells; experiment: cell-based or functional assay
[2] = target: NY-ESO-1 157-165 peptide … (SEQ ID NO: 2) on HLA-A2 of peptide-pulsed cells; experiment: cell-based or functional assay
[3] = target: … (SEQ ID NO: 27) on HLA-A2 of pulsed T2 cells; experiment: cell-based or functional assay
[4] = target: … (SEQ ID NO: 24) on HLA-A2 of pulsed T2 cells; experiment: cell-based or functional assay
[5] = target: … (SEQ ID NO: 26) on HLA-A2 of pulsed T2 cells; experiment: cell-based or functional assay
[6] = target: … (SEQ ID NO: 28) on HLA-A2 of pulsed T2 cells; experiment: cell-based or functional assay
[7] = target: … (SEQ ID NO: 23) on HLA-A2 of pulsed T2 cells; experiment: cell-based or functional assay
[8] = target: NY-ESO-1 peptide on HLA-A*02:01 (human); experiment: IFN-gamma ELISA; PBL transduced with 1G4-LY, after one OKT3 stimulation, peptide-pulsed T2 cells; full-length, on cells

IFN-γ (pg/ml); Donor K PBL, T2 + 1 ng/µL peptide [1]: 0 pg/mL | IFN-γ (pg/ml); Donor K PBL, T2 + 10 ng/µL peptide [1]: 0 pg/mL | IFN-γ (pg/ml); Donor L PBL, T2 + 1 ng/µL peptide [1]: 148 pg/mL | IFN-γ (pg/ml); Donor L PBL, T2 + 10 ng/µL peptide [1]: 294 pg/mL | IFN-γ (pg/ml); Donor H after expanding numbers of cells, T2 + 0.1 ng/µl peptide [2]: 89 pg/mL | IFN-γ (pg/ml); Donor H after expanding numbers of cells, T2 + 1 ng/µl peptide [2]: 512 pg/mL | IFN-γ (pg/ml); Donor H after expanding numbers of cells, T2 + 10 ng/µl peptide [2]: 2970 pg/mL | IFN-γ (pg/ml); Donor H after expanding numbers of cells, T2 + 100 ng/µl peptide [2]: 4340 pg/mL | IFN-γ (pg/ml); Donor H after stimulation with OKT3, T2 + 0.1 ng/µl peptide [2]: 1400 pg/mL | IFN-γ (pg/ml); Donor H after stimulation with OKT3, T2 + 1 ng/µl peptide [2]: 1710 pg/mL | IFN-γ (pg/ml); Donor H after stimulation with OKT3, T2 + 10 ng/µl peptide [2]: 3020 pg/mL | IFN-γ (pg/ml); Donor H after stimulation with OKT3, T2 + 100 ng/µl peptide [2]: 3780 pg/mL | IFN-γ (pg/ml); Donor K PBL, T2 + 1 ng/µL peptide [2]: 678 pg/mL | IFN-γ (pg/ml); Donor K PBL, T2 + 10 ng/µL peptide [2]: 3760 pg/mL | IFN-γ (pg/ml); Donor L PBL, T2 + 1 ng/µL peptide [2]: 184 pg/mL | IFN-γ (pg/ml); Donor L PBL, T2 + 10 ng/µL peptide [2]: 754 pg/mL | IFN-γ (pg/ml); Patient 1 PBL S1D7, T2 + 0.1 ng/ml peptide [2]: 0 pg/mL | IFN-γ (pg/ml); Patient 1 PBL S1D7, T2 + 1 ng/ml peptide [2]: 677 pg/mL | IFN-γ (pg/ml); Patient 1 PBL S1D7, T2 + 10 ng/ml peptide [2]: 1090 pg/mL | IFN-γ (pg/ml); Patient 1 PBL S1D7, T2 + 100 ng/ml peptide [2]: 1600 pg/mL | IFN-γ (pg/ml); Patient 1 PBL S1D7, T2 + 1 µg/ml peptide [2]: 2170 pg/mL | IFN-γ (pg/ml); Patient 1 expanded PBL S2D9, T2 + 0.1 ng/ml peptide [2]: 1330 pg/mL | IFN-γ (pg/ml); Patient 1 expanded PBL S2D9, T2 + 1 ng/ml peptide [2]: 7260 pg/mL | IFN-γ (pg/ml); Patient 1 expanded PBL S2D9, T2 + 10 ng/ml peptide [2]: 16200 pg/mL | IFN-γ (pg/ml); Patient 1 expanded PBL S2D9, T2 + 100 ng/ml peptide [2]: 21600 pg/mL | IFN-γ (pg/ml); Patient 1 expanded PBL S2D9, T2 + 1 µg/ml peptide [2]: 30600 pg/mL | IFN-γ (pg/ml); Patient 2 PBL S1D7, T2 + 0.1 ng/ml peptide [2]: 40 pg/mL | IFN-γ (pg/ml); Patient 2 PBL S1D7, T2 + 1 ng/ml peptide [2]: 291 pg/mL | IFN-γ (pg/ml); Patient 2 PBL S1D7, T2 + 10 ng/ml peptide [2]: 879 pg/mL | IFN-γ (pg/ml); Patient 2 PBL S1D7, T2 + 100 ng/ml peptide [2]: 1280 pg/mL | IFN-γ (pg/ml); Patient 2 PBL S1D7, T2 + 1 µg/ml peptide [2]: 2440 pg/mL | IFN-γ (pg/ml); Patient 2 expanded PBL S2D9, T2 + 0.1 ng/ml peptide [2]: 662 pg/mL | IFN-γ (pg/ml); Patient 2 expanded PBL S2D9, T2 + 1 ng/ml peptide [2]: 2500 pg/mL | IFN-γ (pg/ml); Patient 2 expanded PBL S2D9, T2 + 10 ng/ml peptide [2]: 6800 pg/mL | IFN-γ (pg/ml); Patient 2 expanded PBL S2D9, T2 + 100 ng/ml peptide [2]: 10600 pg/mL | IFN-γ (pg/ml); Patient 2 expanded PBL S2D9, T2 + 1 µg/ml peptide [2]: 19400 pg/mL | lowest peptide concentration on T2 cells that was recognized (IFN-γ) [2]: 0.1 ng/mL | IFN-γ (pg/ml); Donor K PBL, T2 + 1 ng/µL peptide [3]: 457 pg/mL | IFN-γ (pg/ml); Donor K PBL, T2 + 10 ng/µL peptide [3]: 5670 pg/mL | IFN-γ (pg/ml); Donor L PBL, T2 + 1 ng/µL peptide [3]: 208 pg/mL | IFN-γ (pg/ml); Donor L PBL, T2 + 10 ng/µL peptide [3]: 1030 pg/mL | IFN-γ (pg/ml); Donor K PBL, T2 + 1 ng/µL peptide [4]: 0 pg/mL | IFN-γ (pg/ml); Donor K PBL, T2 + 10 ng/µL peptide [4]: 0 pg/mL | IFN-γ (pg/ml); Donor L PBL, T2 + 1 ng/µL peptide [4]: 225 pg/mL | IFN-γ (pg/ml); Donor L PBL, T2 + 10 ng/µL peptide [4]: 185 pg/mL | IFN-γ (pg/ml); Donor K PBL, T2 + 1 ng/µL peptide [5]: 884 pg/mL | IFN-γ (pg/ml); Donor K PBL, T2 + 10 ng/µL peptide [5]: 1110 pg/mL | IFN-γ (pg/ml); Donor L PBL, T2 + 1 ng/µL peptide [5]: 220 pg/mL | IFN-γ (pg/ml); Donor L PBL, T2 + 10 ng/µL peptide [5]: 297 pg/mL | IFN-γ (pg/ml); Donor K PBL, T2 + 1 ng/µL peptide [6]: 0 pg/mL | IFN-γ (pg/ml); Donor K PBL, T2 + 10 ng/µL peptide [6]: 0 pg/mL | IFN-γ (pg/ml); Donor L PBL, T2 + 1 ng/µL peptide [6]: 82 pg/mL | IFN-γ (pg/ml); Donor L PBL, T2 + 10 ng/µL peptide [6]: 97 pg/mL | IFN-γ (pg/ml); Donor K PBL, T2 + 1 ng/µL peptide [7]: 1780 pg/mL | IFN-γ (pg/ml); Donor K PBL, T2 + 10 ng/µL peptide [7]: 3270 pg/mL | IFN-γ (pg/ml); Donor L PBL, T2 + 1 ng/µL peptide [7]: 370 pg/mL | IFN-γ (pg/ml); Donor L PBL, T2 + 10 ng/µL peptide [7]: 1380 pg/mL | lowest peptide concentration recognised [8]: < 0.1 ng/mL
Substance: 1G4-LY TCR

IFN-γ (pg/ml); Patient 1 PBL S1D7, T2 + 0.1 ng/ml peptide [2]: 99 pg/mL | IFN-γ (pg/ml); Patient 1 PBL S1D7, T2 + 1 ng/ml peptide [2]: 851 pg/mL | IFN-γ (pg/ml); Patient 1 PBL S1D7, T2 + 10 ng/ml peptide [2]: 1520 pg/mL | IFN-γ (pg/ml); Patient 1 PBL S1D7, T2 + 100 ng/ml peptide [2]: 2480 pg/mL | IFN-γ (pg/ml); Patient 1 PBL S1D7, T2 + 1 µg/ml peptide [2]: 2450 pg/mL | IFN-γ (pg/ml); Patient 1 expanded PBL S2D9, T2 + 0.1 ng/ml peptide [2]: 1280 pg/mL | IFN-γ (pg/ml); Patient 1 expanded PBL S2D9, T2 + 1 ng/ml peptide [2]: 6990 pg/mL | IFN-γ (pg/ml); Patient 1 expanded PBL S2D9, T2 + 10 ng/ml peptide [2]: 13500 pg/mL | IFN-γ (pg/ml); Patient 1 expanded PBL S2D9, T2 + 100 ng/ml peptide [2]: 19400 pg/mL | IFN-γ (pg/ml); Patient 1 expanded PBL S2D9, T2 + 1 µg/ml peptide [2]: 26400 pg/mL | IFN-γ (pg/ml); Patient 2 PBL S1D7, T2 + 0.1 ng/ml peptide [2]: 41 pg/mL | IFN-γ (pg/ml); Patient 2 PBL S1D7, T2 + 1 ng/ml peptide [2]: 397 pg/mL | IFN-γ (pg/ml); Patient 2 PBL S1D7, T2 + 10 ng/ml peptide [2]: 860 pg/mL | IFN-γ (pg/ml); Patient 2 PBL S1D7, T2 + 100 ng/ml peptide [2]: 1100 pg/mL | IFN-γ (pg/ml); Patient 2 PBL S1D7, T2 + 1 µg/ml peptide [2]: 1960 pg/mL | IFN-γ (pg/ml); Patient 2 expanded PBL S2D9, T2 + 0.1 ng/ml peptide [2]: 747 pg/mL | IFN-γ (pg/ml); Patient 2 expanded PBL S2D9, T2 + 1 ng/ml peptide [2]: 3550 pg/mL | IFN-γ (pg/ml); Patient 2 expanded PBL S2D9, T2 + 10 ng/ml peptide [2]: 7350 pg/mL | IFN-γ (pg/ml); Patient 2 expanded PBL S2D9, T2 + 100 ng/ml peptide [2]: 12700 pg/mL | IFN-γ (pg/ml); Patient 2 expanded PBL S2D9, T2 + 1 µg/ml peptide [2]: 19500 pg/mL
Substance: wild-type human anti-NY-ESO-1 TCR (1G4)
